These results are taken from patent US20140010817A1 (Daiichi Sankyo, published 2014).

For experiment [1], the target named is T1, RX protein purified from the culture supernatant of ADSF cells (murine mammary tumor virus (MMTV) …, UniProt P03374 99-474; P03374 475-651).
T1 construct: also called purified RX protein; ADSF cell-derived RX protein
The experiment is described as follows: SPR (ProteOn XPR36), antibody immobilised by amine coupling on a GLM chip, purified RX protein as analyte.
Source text: (§1) Each antibody was immobilized on a sensor chip (Sensor Chip GLM; Bio-Rad Laboratories, Inc.) by the amine coupling method. The chip was blocked by the addition of 1 M ethanolamine hydrochloride (pH 8.5). ProteOn PBS/Tween, pH 7.4 (PBS, pH 7.4, 0.005% Tween 20) was used as a running buffer solution. The purified RX protein was serially diluted and interacted as an analyte with the immobilized monoclonal antibody to determine the binding affinity. The association rate constant ka and the dissociation rate constant kd were calculated by kinetics analysis using ProteOn Manager™.

In experiment [2] the target is T1, RX protein purified from the culture …. The experiment is described as follows: SPR (ProteOn XPR36), antibody immobilized by amine coupling, RX protein as analyte.
Source text: as §1
For experiment [3] the target is unchanged. The experiment is described as follows: SPR (ProteOn XPR36) by the method of Example 4: antibody immobilized, RX protein as analyte.
Source text: as §1
Experiment [4] has the same target. The experiment is described as follows: SPR (ProteOn XPR36), humanized MAb1 captured on immobilised Protein A/G, RX protein as analyte.
Procedure: Specifically, a Protein A-Protein G fusion protein Protein A/G (Thermo Fisher Scientific K.K.) was immobilized on the GLM sensor chip of ProteOn XPR36 (Bio-Rad Laboratories, Inc.) by the amine coupling method. […] The dissociation constant, i.e., binding affinity, was calculated from the ratio therebetween.
Experiment [5] shares this target. The experiment is described as follows: SPR. Background: In SPR one partner is held on a chip, and binding of the other changes the refractive index at the surface.

Positions count from the first letter of the chain named.

B1: Monoclonal Antibody 2 (MAb2) (antibody, V domains shown)
VH: EVKLQESGPELKKPGETVKISCKASGYTFRDYPIHWVKQAPGKGLKWMGWINTETGEPTYADDFKGRFAFSLETSANTTYLQINNLKNEDTATYFCTPRFTYWGQGTLVTVSS
VL: DIVMTQTPSSLAVSVGEKVTMSCKSSQNLLYSGNQKNYLAWFQQKPGQSPKLLIYWASTRESGVPDRFTGSGSGTDFTLTLSSVKAEDLAVYYCQQSYRYPYTSGGGTKLEIKR
Usually Kd stands for the free concentration of one partner at which half of the binding sites on the other are occupied at equilibrium, for simple one-to-one binding. Low readings indicate a tighter complex, high ones a looser complex. One may read the koff as the rate constant with which the complex falls apart. One may read the kon as the rate constant with which the complex forms. Higher therefore signals faster complex formation. In experiment [1], B1 came in with a Kd of 0.26 nM, a dissociation rate constant (koff) of 0.00021 s⁻¹ and an on-rate constant (kon) of 810000 M⁻¹ s⁻¹. The molecule further had an equilibrium dissociation constant (Kd) in experiment [2] of approximately 0.1 nM.

B2: Monoclonal Antibody 1 (MAb1) (antibody)
heavy: EVQLVESGGGLVQPGRSLKLSCVGSGFTFSDYYMAWVRQAPKKGLEWVASISYEGSNTNFGDSVKGRFTISRDSAKSTLYLQMNSLRSEDTATYYCARWAQTGYYFDYWGQGVMVTVSSAETTAPSVYPLAPGTALKSNSMVTLGCLVKGYFPEPVTVTWNSGALSSGVHTFPAVLQSGLYTLTSSVTVPSSTWSSQAVTCNVAHPASSTKVDKKIVPRECNPCGCTGSEVSSVFIFPPKTKDVLTITLTPKVTCVVVDISQNDPEVRFSWFIDDVEVHTAQTHAPEKQSNSTLRSVSELPIVHRDWLNGKTFKCKVNSGAFPAPIEKSISKPEGTPRGPQVYTMAPPKEEMTQSQVSITCMVKGFYPPDIYTEWKMNGQPQENYKNTPPTMDTDGSYFLYSKLNVKKETWQQGNTFTCSVLHEGLHNHHTEKSLSHSPGK
light: DIQMTQSPASLSASLGETVTIECLASEDIYSNLAWYQQKPGKSPQLLIYYANSLNDGVPSRFSGSGSGTQFSLKINSLQSEDVSIYFCQQNYDSPYTFGAGAKLELKRADAAPTVSIFPPSTKQLATGGASVVCLMNNFYPRDISVKWKIDGTERRDGVLDSVTDQDSKDSTYSMSSTLSLTKADYESHNLYTCEVVHKTSSSPVVKSFNRNEC
notes: also called rat antibody MAb1; recombinant MAb1
For B2, the dissociation constant (Kd) in experiment [1] is 0.16 nM; in experiment [2] it was approximately 0.1 nM.

B3: Monoclonal Antibody 4 (MAb4) (antibody, V domains shown)
VH: QVKLEESGAELVKPGASVKMSCKASGYTFTIYNIHWVKQTPRQGLEWIGTIFPVNGDTSYNQRFKGKATLTADKSSNTAYMQLSGLTSEDSALYYCARSTTARAWFPYWGQGTLVTVSA
VL: HIVITQTQKFMSTSVGDRVSVTCKASQNVGSNVAWYQQKPGQSPKVLIYSASYRYSGVPDRFTGSGSGTDFTLTISNVQSEDLADFFCQQYNTSPFTFGGGTKLEIK
Regarding B3, the dissociation constant (Kd) in experiment [3] came to 0.14 nM.

B4: humanized antibody T14 (antibody, V domains shown)
VH: EVQLVESGGGLVQPGRSLRLSCAASGFTFSDYYMAWVRQAPGKGLEWVASISYEGSNTNFGDSVKGRFTISRDSSKNTLYLKMNSLRAEDTAVYYCARWAQTGYYFDYWGQGTLVTVSS
VL: DIQMTQSPSSLSASVGDRVTITCLASEDIYSNLAWYQQKPGKSPKLLIYYANSLNDGVPSRFSGSGSGTDFTLTISRLQPEDFATYYCQQNYDSPYTFGQGTKVEIKR
notes: also called humanized MAb1 (H5/L2)
With B4, the equilibrium dissociation constant (Kd) in experiment [4] worked out at 0.19 nM.

B5: humanized antibody T15 (antibody, V domains shown)
VH: B4 VH
VL: B4 VL with R77S
notes: also called humanized MAb1 (H5/L5)
Take B5: the dissociation constant Kd in experiment [4] is 0.26 nM.

B6: humanized antibody T6 (antibody, V domains shown)
VH: B4 VH with S74N
VL: B4 VL with K45Q, Y87F
notes: also called humanized MAb1 (H2/L3)
Turning to B6, in experiment [4], the equilibrium dissociation constant (Kd) worked out at 2 nM.

B7: humanized antibody T8 (antibody, V domains shown)
VH: B4 VH with A24G
VL: B4 VL with S43A
notes: also called humanized MAb1 (H3/L1)
For the molecule B7, in experiment [4], the Kd came to 0.17 nM.

B8: humanized antibody T4 (antibody, V domains shown)
VH: B4 VH with S74N
VL: B4 VL with S43A
notes: also called humanized MAb1 (H2/L1)
On to B8, for which the equilibrium dissociation constant (Kd) in experiment [4] was 2 nM.

B9: humanized antibody T17 (antibody, V domains shown)
VH: B4 VH with A24G, S74N
VL: B4 VL with R77S
notes: also called humanized MAb1 (H6/L5)
Turning to B9, binding in experiment [4] was put at a Kd of 2 nM.

B10: humanized antibody T11 (antibody, V domains shown)
VH: B4 VH with A24G
VL: B4 VL with R77S
notes: also called humanized MAb1 (H3/L5)
As for B10, binding in experiment [4] was put at a Kd of 0.37 nM.

B11: humanized antibody T16 (antibody, V domains shown)
VH: B4 VH with A24G, S74N
VL: B4 VL
notes: also called humanized MAb1 (H6/L2)
In experiment [4], B11 had a Kd of 1.9 nM.

B12: humanized antibody T18 (antibody, V domains shown)
VH: B4 VH with A24G, K82Q
VL: B4 VL
notes: also called humanized MAb1 (H7/L2)
The molecule B12 showed an equilibrium dissociation constant (Kd) in experiment [4] of 0.22 nM.

B13: humanized antibody T3 (antibody, V domains shown)
VH: B4 VH with A49S, S74N
VL: B4 VL with K45Q, Y87F
notes: also called humanized MAb1 (H1/L3)
B13: the equilibrium dissociation constant (Kd) in experiment [4] was determined as 2.5 nM.

B14: humanized antibody T10 (antibody, V domains shown)
VH: B4 VH with A24G
VL: B4 VL with K45Q, Y87F
notes: also called humanized MAb1 (H3/L3)
With B14, the Kd in experiment [4] turned out to be 0.47 nM.

B15: humanized antibody T2 (antibody, V domains shown)
VH: B4 VH with A49S, S74N
VL: B4 VL
notes: also called humanized MAb1 (H1/L2)
In experiment [4], B15 yielded a dissociation constant Kd of 1.9 nM.

B16: humanized antibody T9 (antibody, V domains shown)
VH: B4 VH with A24G
VL: B4 VL
notes: also called humanized MAb1 (H3/L2)
B16 came in with a Kd in experiment [4] of 0.25 nM.

B17: humanized antibody T12 (antibody, V domains shown)
VH: B4 VH with A24G, S75A
VL: B4 VL with K45Q, Y87F, V104L
notes: also called humanized MAb1 (H4/L4)
Regarding B17, the Kd in experiment [4] was 0.32 nM.

B18: humanized antibody T19 (antibody)
heavy: not shown
light: DIQMTQSPSSLSASVGDRVTITCLASEDIYSNLAWYQQKPGKAPKLLIYYANSLNDGVPSRFSGSGSGTDFTLTISRLQPEDFATYYCQQNYDSPYTFGQGTKVEIKRTVAAPSVFIFPPSDEQLKSGTASVVCLLNNFYPREAKVQWKVDNALQSGNSQESVTEQDSKDSTYSLSSTLTLSKADYEKHKVYACEVTHQGLSSPVTKSFNRGEC
notes: also called humanized MAb1 (H8/L1)
Take B18: in experiment [4], the dissociation constant (Kd) turned out to be 0.69 nM. Against the preceding molecule, the Kd is about 2.2-fold higher.

B19: humanized antibody T21 (antibody)
heavy: not shown
light: B18 light
notes: also called humanized MAb1 (H10/L1)
Take B19: the Kd in experiment [4] turned out to be 0.42 nM.

B20: humanized antibody T1 (antibody, V domains shown)
VH: B4 VH with A49S, S74N
VL: B4 VL with S43A
notes: also called humanized MAb1 (H1/L1)
In the case of B20, binding in experiment [4] was put at a Kd of 2.5 nM.

B21: Monoclonal Antibody 3 (MAb3) (antibody, V domains shown)
VH: QVKLEESGGGLVKPGGSLKLSCAASGFSFSRNVMSWVRQTPEKRLEWVATISAGGSYTYYPDSVKGRFTISRDNAKNTLYLQMSSLRSEDTAMYYCARLNYNDNGNYFDYWGQGTTLTVSS
VL: DIVMTQSTAIMSASLGEKVTMSCRASSSVVYMYWYQQKSDASPKLWIYYTSNLAPGVPARFSGSGSGNSYSLTISSMEGEDAATYYCQQFTSSPYTFGGGTKLEIKR
For the molecule B21, in experiment [1], binding was characterised by a dissociation constant (Kd) of 0.62 nM, the koff turned out to be 0.0017 s⁻¹ and the kon came out at 2.8e+06 M⁻¹ s⁻¹. Also, the Kd in experiment [2] is approximately 0.1 nM.

B22: chimerized MAb1 (rat-human chimeric antibody) (antibody, V domains shown)
VH: EVQLVESGGGLVQPGRSLKLSCVGSGFTFSDYYMAWVRQAPKKGLEWVASISYEGSNTNFGDSVKGRFTISRDSAKSTLYLQMNSLRSEDTATYYCARWAQTGYYFDYWGQGVMVTVSS
VL: DIQMTQSPASLSASLGETVTIECLASEDIYSNLAWYQQKPGKSPQLLIYYANSLNDGVPSRFSGSGSGTQFSLKINSLQSEDVSIYFCQQNYDSPYTFGAGAKLELKRA
Take B22: binding in experiment [5] was put at a Kd of 0.22 nM.
